From PMC4428439 come the findings set out here.

The chains are these.
B1: RssB, full-length, untagged, overexpressed in lysate [E. coli] / His6-IraP [E. coli] (parent)
chain 1: MTQPLVGKQILIVEDEQVFRSLLDSWFSSLGATTVLAADGVDALELLGGFTPDLMICDIAMPRMNGLKLLEHIRNRGDQTPVLVISATENMADIAKALRLGVEDVLLKPVKDLNRLREMVFACLYPSMFNSRVEEEERLFRDWDAMVDNPAAAAKLLQELQPPVQQVISHCRVNYRQLVAADKPGLVLDIAALSENDLAFYCLDVTRAGHNGVLAALLLRALFNGLLQEQLAHQNQRLPELGALLKQVNHLLRQANLPGQFPLLVGYYHRELKNLILVSAGLNATLNTGEHQVQISNGVPLGTLGNAYLNQLSQRCDAWQCQIWGTGGRLRLMLSAE
chain 2: MKNLIAELLFKLAQKEEESKELCAQVEALEIIVTAMLRNMAQNDQQRLIDQVEGALYEVKPDASIPDDDTELLRDYVKKLLKHPRQ

This assay covers variants of B1. Put plainly: pull-down. As to conditions: with His6-IraP [E. coli]; lysate of cells co-expressing RssB and His6-IraP applied to Ni-NTA beads; eluted with imidazole; n = 3; parent: 1; read off a plot.
Take chain 1 MTQPLVGKQILIVEDEQVFRSLLDSWFSSLGATTVLAADGVDALELLGGFTPDLMICAIAMPRMNGLKLLEHIRNRGDQTPVLVISATENMADIAKALRLGVEDVLLKPVKDLNRLREMVFACLYPSMFNSRVEEEERLFRDWDAMVDNPAAAAKLLQELQPPVQQVISHCRVNYRQLVAADKPGLVLDIAALSENDLAFYCLDVTRAGHNGVLAALLLRALFNGLLQEQLAHQNQRLPELGALLKQVNHLLRQANLPGQFPLLVGYYHRELKNLILVSAGLNATLNTGEHQVQISNGVPLGTLGNAYLNQLSQRCDAWQCQIWGTGGRLRLMLSAE [chain 1 D58A]: the ratio to parent was determined as 0.6.
Turning to chain 1 MTQPLVGKQILIVEDEQVFRSLLDSWFSSLGATTVLAADGVDALELLGGFTPDLMICPIAMPRMNGLKLLEHIRNRGDQTPVLVISATENMADIAKALRLGVEDVLLKPVKDLNRLREMVFACLYPSMFNSRVEEEERLFRDWDAMVDNPAAAAKLLQELQPPVQQVISHCRVNYRQLVAADKPGLVLDIAALSENDLAFYCLDVTRAGHNGVLAALLLRALFNGLLQEQLAHQNQRLPELGALLKQVNHLLRQANLPGQFPLLVGYYHRELKNLILVSAGLNATLNTGEHQVQISNGVPLGTLGNAYLNQLSQRCDAWQCQIWGTGGRLRLMLSAE [chain 1 D58P], the ratio to parent was determined as 0.36.
